Experimental data as given in US20030211523A1 (published 2003).

What was measured:
[1] = molecular target: VP16 transcription activation domain fused to aa 133-239 of c-Fos, encoded by PMVP_Fos (human) (UniProt P01100); experiment: cell-based or functional assay
[2] = molecular target: VP16 activation domain alone, encoded by the empty prey vector PMVP (UniProt P06492); experiment: cell-based or functional assay
[3] = molecular target: T1, JA domain (aa 1-223) of c-Jun fused with GFP, encoded by PMNGFP_JA (human, UniProt P05412 1-223; P42212 1-238 = GFP); experiment: in vivo binding screening: membrane localization of the GFP fusion in HEK293T cells, fluorescence microscopy
T1 construct: Expressed in HEK293T cells

[4] = molecular target: T2, JZ domain of c-Jun fused with GFP, encoded by PMNGFP_JZ (human, UniProt P05412 249-331; P42212 1-238 = GFP); experiment: as above
T2 construct: Expressed in HEK293T cells; also called bait in the second screening

Sequence of VP16 activation domain alone, encoded by the empty prey vector PMVP (P06492 411-456 limits assumed): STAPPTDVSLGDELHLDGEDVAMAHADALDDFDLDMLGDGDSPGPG

Gal4 DNA-binding domain alone, encoded by the empty bait vector PMBD (from UniProt P04386 1-147)
events with GFP 30-fold or more above the background (FACS) (event in 10000) [1]: < 1

Gal4 DNA-binding domain fused to the JZ domain (aa 249-331) of c-Jun, encoded by PMBD_JZ (from UniProt P04386 1-147; P05412 249-331)
events with GFP 30-fold or more above the background (FACS) (event in 10000) [2]: < 1

B1: Fyn_Fos peptide: Fyn myristoylation (membrane-localizing) signal fused to c-Fos aa 133-239, expressed from the 3-primer PCR product (other, UniProt P06241 1-10, looked up)
chain: MGCVQCKDKESPEEEEKRRIRRERNKMAAAKCRNRRRELTDTLQAETDQLEDEKSALQTEIANLLKEKEKLEFILAAHRPACKIPDDLGFPEEMSVASLDLTGGLPEVATPESEEAF
modifications: myristoylation signal at the N-terminus (membrane-localizing signal)
notes: domain: myristoylation signal;range 133-239; Expressed in HEK293T cells
binding result [3]: no binding

B2: Fyn_JA: Fyn membrane-localizing signal fused to the JA domain of c-Jun (other, UniProt P06241 1-10, looked up)
chain: MGCVQCKDKEMTAKMETTFYDDALNASFLPSESGPYGYSNPKILKQSMTLNLADPVGSLKPHLRAKNSDLLTSPDVGLLKLASPELERLIIQSSNGHITTTPTPTQFLCPKNVTDEQEGFAEGFVRALAELHSQNTLPSVTSAAQPVNGAGMVAPAVASVAGGSGSGGFSASLHSEPPVYANLSNFNPGALSSGGGAPSYGAAGLAFPAQPQQQQQPPHHLPQQMPVQHPRLQ
modifications: myristoylation signal at the N-terminus (membrane-localizing signal)
notes: domain: myristoylation signal;range 1-223
binding result [4]: no binding
